B1: Hairpin Ribozyme (parent)
chain: GUCCUCUUUCACGUGCGCGUGAAAGAGAGAAGUGAACCAGAGAAACACACGUUGUGGUAUAUUACCUGGUA

Variants of: B1
Experiment: self-cleavage, relative activity (ratio to wild type); higher = more cleavage; co-transcriptional
C6A U14G showed a self-cleavage of 0.499.
Variant C6A G19U has a self-cleavage of 0.505.
C6G G27A gave a self-cleavage of 0.135.
C6G G27C showed a self-cleavage of 0.174.
With C6G G27U the self-cleavage was 0.161.
In the case of C6U U67A, the self-cleavage is reported as 0.151.
C6U U67C gave a self-cleavage of 0.222.
Variant C6U G17U has a self-cleavage of 0.859.
C6A G54C showed a self-cleavage of 0.209.
C6U G21C showed a self-cleavage of 0.597.
In the case of U7A C16G, the self-cleavage is reported as 0.779.
With U7A C16U the self-cleavage was 0.85.
With C6U G54A the self-cleavage was 0.59.
With C6U G54U the self-cleavage was 0.371.
With U5C G17U the self-cleavage was 0.794.
Work on U5C G17A yielded a self-cleavage of 0.644.
With C6G U14C the self-cleavage was 0.449.
Variant C6G G54C has a self-cleavage of 0.265.
Variant U7A A45U has a self-cleavage of 0.261.
For U7A A45G, the self-cleavage was 0.204.
With C6A C12U the self-cleavage was 0.512.
Work on U7A A24G yielded a self-cleavage of 0.702.
Work on U5C C50U yielded a self-cleavage of 0.17.
Work on C6G A64C yielded a self-cleavage of 0.123.
With C6G A64U the self-cleavage was 0.105.
For C6G A64G, the self-cleavage was 0.365.
Work on C6G A35U yielded a self-cleavage of 0.464.
For U7A A61C, the self-cleavage was 0.188.
Variant U5G A49U has a self-cleavage of 0.127.
In the case of U7A A41U, the self-cleavage is reported as 1.28.
In the case of C6U A23G, the self-cleavage is reported as 0.768.
C6G G25A gave a self-cleavage of 0.523.
Variant U5C C65A has a self-cleavage of 0.511.
In the case of U5G A28U, the self-cleavage is reported as 0.242.
Variant U5G A28C has a self-cleavage of 0.0791.
In the case of U5C C46U, the self-cleavage is reported as 0.023.
Work on C6U C65A yielded a self-cleavage of 0.776.
Work on U5C U20A yielded a self-cleavage of 0.532.
U5G G68A gave a self-cleavage of 0.201.
For C6U A35U, the self-cleavage was 0.765.
Variant C6U A24U has a self-cleavage of 0.781.
For C6A U7C, the self-cleavage was 0.609.
In the case of U5C G42C, the self-cleavage is reported as 0.327.
With U5C G42U the self-cleavage was 0.164.
With U5G A35G the self-cleavage was 0.36.
U5G A35C gave a self-cleavage of 0.254.
With C6U U14G the self-cleavage was 0.791.
C6U U14A showed a self-cleavage of 0.853.
C6U U14C gave a self-cleavage of 0.932.
C6G A41U showed a self-cleavage of 0.873.
U7A C50U showed a self-cleavage of 0.364.
Work on U5G A47G yielded a self-cleavage of 0.123.
Work on U5G G51U yielded a self-cleavage of 0.534.
U5C C37A showed a self-cleavage of 0.178.
For C6A A71C, the self-cleavage was 1.14.
Work on C6G G21U yielded a self-cleavage of 0.181.
With C6G G21C the self-cleavage was 0.125.
For U5C G29A, the self-cleavage was 0.106.
In the case of U5G A31U, the self-cleavage is reported as 0.0772.
For C6G A39U, the self-cleavage was 0.164.
C6G A39C gave a self-cleavage of 0.299.
U5G G34U showed a self-cleavage of 1.08.
Work on U5G A39G yielded a self-cleavage of 0.0943.
Variant C6U U20A has a self-cleavage of 0.764.
C6U U20C gave a self-cleavage of 0.806.
C6U C50G showed a self-cleavage of 0.299.
Variant C6U C50A has a self-cleavage of 0.24.
C6U C50U showed a self-cleavage of 0.386.
For U5G C37G, the self-cleavage was 0.125.
With U5C G32A the self-cleavage was 0.162.
C6U A11G gave a self-cleavage of 0.816.
For C6U A11U, the self-cleavage was 0.578.
In the case of C6U A11C, the self-cleavage is reported as 0.411.
With U5G A64U the self-cleavage was 0.161.
In the case of C6A A45G, the self-cleavage is reported as 0.0698.
Variant C6G G57U has a self-cleavage of 0.238.
C6A G56A showed a self-cleavage of 0.117.
C6A G56U showed a self-cleavage of 0.218.
With U7A A23C the self-cleavage was 0.894.
Variant C6G A47U has a self-cleavage of 0.13.
C6G A47G gave a self-cleavage of 0.0875.
Work on C6G A26C yielded a self-cleavage of 0.22.
For C6A G32A, the self-cleavage was 0.122.
Work on C6A G32U yielded a self-cleavage of 0.133.
Work on C6A G32C yielded a self-cleavage of 0.133.
Variant U7A G19U has a self-cleavage of 0.581.
For U7A G19C, the self-cleavage was 0.711.
C6U G40A showed a self-cleavage of 0.344.
Work on C6G A11C yielded a self-cleavage of 0.45.
C6G A11U gave a self-cleavage of 0.314.
With C6G A24U the self-cleavage was 0.331.
For U5G A41C, the self-cleavage was 0.571.
U5G A41G gave a self-cleavage of 0.129.
With U5G A41U the self-cleavage was 0.607.
Work on C6G C66G yielded a self-cleavage of 0.166.
U5G A11C gave a self-cleavage of 0.175.
For U5C G15U, the self-cleavage was 0.574.
U5C G15C showed a self-cleavage of 0.469.
Variant U5G C38A has a self-cleavage of 0.12.
Work on U7A A36C yielded a self-cleavage of 0.573.
C6U G25A showed a self-cleavage of 0.751.
With C6U G25U the self-cleavage was 0.762.
For U5G C48U, the self-cleavage was 0.196.
Work on C6U G13A yielded a self-cleavage of 0.712.
For C6U G13C, the self-cleavage was 0.65.
C6A G17A gave a self-cleavage of 0.663.
Variant C6G U62C has a self-cleavage of 0.116.
C6U G19U gave a self-cleavage of 0.715.
With C6G C65A the self-cleavage was 0.527.
C6U A41G showed a self-cleavage of 0.768.
In the case of C6G C38A, the self-cleavage is reported as 0.103.
In the case of U5G A71C, the self-cleavage is reported as 0.732.
U5C A61G gave a self-cleavage of 0.176.
C6G G42U showed a self-cleavage of 0.113.
Variant C6G C12G has a self-cleavage of 0.294.
C6G C12U showed a self-cleavage of 0.332.
With C6G C12A the self-cleavage was 0.572.
With C6G U55A the self-cleavage was 0.13.
Variant C6G U55G has a self-cleavage of 0.167.
In the case of C6G U55C, the self-cleavage is reported as 0.156.
Variant C6U A31U has a self-cleavage of 0.101.
With C6U A64G the self-cleavage was 0.514.
In the case of C6U A64U, the self-cleavage is reported as 0.16.
C6U A64C gave a self-cleavage of 0.238.
With C6G G69A the self-cleavage was 0.251.
In the case of C6A C38U, the self-cleavage is reported as 0.354.
In the case of C6A C38G, the self-cleavage is reported as 0.149.
For U7A C18U, the self-cleavage was 0.8.
For C6A G27C, the self-cleavage was 0.118.
In the case of C6G A22C, the self-cleavage is reported as 0.342.
Work on C6A U20G yielded a self-cleavage of 0.518.
In the case of C6U G34A, the self-cleavage is reported as 0.863.
In the case of C6U G34C, the self-cleavage is reported as 1.1.
With U5C G69A the self-cleavage was 0.158.
Work on U7A A30U yielded a self-cleavage of 0.0668.
For U7A A30C, the self-cleavage was 0.121.
C6U U33G showed a self-cleavage of 0.126.
For C6U A36C, the self-cleavage was 0.705.
C6U A36U gave a self-cleavage of 0.54.
Variant C6U U63A has a self-cleavage of 0.207.
Work on C6G C10G yielded a self-cleavage of 0.277.
In the case of U5C G56U, the self-cleavage is reported as 0.128.
Variant U5C G56A has a self-cleavage of 0.107.
In the case of C6U G27C, the self-cleavage is reported as 0.106.
In the case of C6U G27A, the self-cleavage is reported as 0.309.
C6U G27U gave a self-cleavage of 0.147.
Work on U5G A30G yielded a self-cleavage of 0.144.
C6U C37G showed a self-cleavage of 0.372.
In the case of C6A C50G, the self-cleavage is reported as 0.175.
Work on C6A C50A yielded a self-cleavage of 0.223.
With C6A G29A the self-cleavage was 0.129.
Variant C6A G29U has a self-cleavage of 0.124.
Work on U5C U63G yielded a self-cleavage of 0.0578.
U5G U70C gave a self-cleavage of 0.226.
U5G U70A showed a self-cleavage of 0.204.
Variant U5G C66A has a self-cleavage of 0.0473.
With U5G G17C the self-cleavage was 0.35.
With U5C U70C the self-cleavage was 0.277.
U5C G19A showed a self-cleavage of 0.422.
For C6G U67A, the self-cleavage was 0.15.
With U5G C65G the self-cleavage was 0.0535.
C6G U52A showed a self-cleavage of 0.433.
Work on U5C U62G yielded a self-cleavage of 0.159.
For C6U U70A, the self-cleavage was 0.699.
Work on U5C U58A yielded a self-cleavage of 0.21.
U5C U58C gave a self-cleavage of 0.496.
In the case of U7A A26G, the self-cleavage is reported as 0.71.

Source: the RNAGym collection of RNA variant scans (doi:10.7554/elife.80360)
